The record followed here is patent US20140045930A1, “ASSAY FOR ARGINYL HYDROXYLASE ACTIVITY” (priority 2011, published 2014).

One experiment addresses T1, YcfD (Escherichia coli, UniProt P27431).
T1 construct: hexa-His (N); made in house; host or cells: E. coli BL21 (DE3), pET28a
T1 sequence (P27431 1-373): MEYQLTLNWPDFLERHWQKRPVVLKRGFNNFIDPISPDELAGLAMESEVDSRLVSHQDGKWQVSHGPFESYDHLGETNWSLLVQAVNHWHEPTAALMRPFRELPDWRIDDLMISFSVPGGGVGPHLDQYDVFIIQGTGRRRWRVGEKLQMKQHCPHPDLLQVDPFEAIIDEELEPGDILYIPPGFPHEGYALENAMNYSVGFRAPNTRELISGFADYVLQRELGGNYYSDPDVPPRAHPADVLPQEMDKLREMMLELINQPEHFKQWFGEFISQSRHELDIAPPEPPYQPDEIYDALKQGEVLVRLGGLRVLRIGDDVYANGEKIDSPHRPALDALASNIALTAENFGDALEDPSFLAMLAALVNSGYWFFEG
Experiment: not given
Type of experiment: biochemical.
Details: not given
As for `O=c1c(-c2ccc(O)cc2)coc2cc(O)cc(O)c12` [genistein], the “inhibition of YcfD argininyl hydroxylase activity” value (from here on “inhibition”) is given as “inhibitory”.

In the case of `O=C(O)CCC(=O)O` [succinate], the “inhibition” value is on record as “inhibitory”. As for `O=C(O)c1ccc(C(=O)O)nc1` [pyridine-2,5-dicarboxylic acid], the “enhancement of YcfD activity” value is recorded as “Enhancers of YcfD activity”. As to `O=C(O)c1ccnc(C(=O)O)c1` [pyridine-2,4-dicarboxylic acid], the “inhibition” value is “inhibitory”.

For `O=C(O)/C=C/C(=O)O` [fumarate], the “inhibition” value is “inhibitory”.

`O=C(O)c1c[nH]c2c(ccc3cccnc32)c1=O` [FG0041]: the “inhibition” value is given as “inhibitory”. As for `O=C(O)CNC(=O)c1nc(Cl)c2ccccc2c1O` [FG2216], the “inhibition” value is on record as “inhibitory”. With `O=C(O)CNC(=O)C(=O)O` [N-oxalylglycine], the “inhibition” value is listed as “inhibitory”.

With `O=C(O)c1cccc(C(=O)O)n1` [pyridine-2,6-dicarboxylic acid], the “enhancement of YcfD activity” value is “Enhancers of YcfD activity”.

The target in the next experiment is T1, YcfD. Kind of experiment: NMR analyses of YcfD-catalysed hydroxylation. The class given is biochemical. To be noted: 1H NMR analyses (data not shown). The text has this: NMR-analyses used a Bruker AVIII 700 system equipped with an inverse TCI cryoprobe optimised for ^1H observation and running TOPSPIN 2 software. Chemical shifts are reported in ppm relative to D2O (δH 4.72); the deuterium signal was used as an internal lock signal and the HDO signal was reduced by presaturation where necessary.
(§1) Using a mass spectrometric (MS) based assay, we then screened YcfD with 21 known peptide fragments of substrates for three human 2OG dependent hydroxylases (PHD2, FIH, JMJD6), that encompasses known hydroxylation sites, including the HIF-1α N- and C-terminal oxygen dependent degradation domain (prolyl-hydroxylation), the HIF-1α C-terminal transcriptional activation domain (asparaginyl hydroxylation), ankyrin repeat domain peptides (asparaginyl hydroxylation), splicing regulatory protein fragments (lysyl5-hydroxylation), and collagen proyl-hyroxylase peptides. […] We then screened other available peptides including a set originally prepared for candidate hydroxylases from Pseudomonas spp., that are potential homologues of the human HIF prolyl-hydroxylases. […] MS-fragmentation analyses, unexpectedly, implied that the predicted hydroxylation occurred at the arginine-residue (Arg-12) at the -3position relative to the C-terminus of the substrate peptide (data not shown). This proposal was supported by ‘alanine scanning’ analyses hydroxylation was assessed for peptides in which substitution of alanine at every position in turn of RLLPAVSEATIRRL. […] We then employed NMR to investigate the regiochemistry of arginine-hydroxylation, employing an octameric peptide (AVSEATIR) containing a single arginine residue to simplify the analyses. This octameric peptide is set out in SEQ ID NO: 12. […] This contrasts with nitric oxide synthase which catalyses hydroxylation of L-arginine to give citrulline and nitric oxide via an Nω-hydroxyarginine intermediate.
For `N=C(N)NCCC[C@H](N)C(=O)O` [L-arginine], the “hydroxylation by YcfD observed by 1H NMR” value is recorded as “No hydroxylation”. Regarding `CC(=O)N[C@@H](CCCNC(=N)N)C(=O)O` [N-α-acetyl-L-arginine], the “hydroxylation by YcfD observed by 1H NMR” value was “No hydroxylation”.

The experiment is the same for the next values; noted with them: 2D-NMR after incubation with YcfD and HPLC purification.
On to “AVSEATIR [octameric peptide containing a single arginine residue]”, for which the position of hydroxylation result is reported as “at C-3 of the hydroxylated arginine-residue”.

A further experiment deals with T1, YcfD. Kind of experiment: Hydroxylation assay by MALDI-TOF MS (peptide substrates, +16 Da mass shift). The conditions noted are these: MS based assay; Fe(II) and 2OG dependent. Type of experiment: biochemical. As to the method:
Assay mixtures (final volume 100 μL in 50 mM Tris-HCl, pH 7.5) contained: enzyme (10 μM), substrate (100 μM), 2OG (160 μM), Fe(II) (200 μM) and ascorbate (2 mM). The reaction mixture was incubated at 37° C. for 30 minutes. The reaction mixture was then placed on ice, 10 μl of 1% formic acid was added to quench the reaction, and the mixture was centrifuged to separate any insoluble material that precipitated during quenching. The resultant soluble mixture (1 μl) and α-cyano-4-hydroxycinnamic acid (CHCA) matrix solution (1 μl) (LaserBio Labs) were double spotted onto a 96 well MALDI sample plate, and when dry analysed using MALDI-TOF MS on a Waters Micromass™ MALDI micro MX™ mass spectrometer in negative ion reflectron mode.
as §1
Based on the identified peptide substrates for YcfD, we searched the E. coli genome for potential substrates and made a set of peptides. Screening for YcfD activity identified a number of further potential substrate sequences as observed by a +16Da mass shift on products. Examples of the peptide substrates are set out in the Table below.
Take “RLLPAVSEATIRRL [14-residue synthetic peptide originally prepared for candidate hydroxylases from Pseudomonas spp; YcfD substrate]”: the “hydroxylation by YcfD (+16Da mass shift)” value is given as “gave a +16Da mass shift”.

The experiment is the same for the next values; noted with them: peptide substrate incubated with YcfD, +16Da mass shift on products.
Regarding “LTHSLKTPLAVLQSTLRS [synthetic peptide, protein origin PhoQ]”, the “% hydroxylation (+16 Da)” value is reported as 90%. Same read-out and setting: with “KTPLAVLQSTLRSLR [synthetic peptide, protein origin PhoQ]” the figure was 40%. On the same count and under the same terms, the same measure for “KHVQALDLSMRFR [synthetic peptide, protein origin Nicotinate-nucleotide diphosphorylase]”: 30%; for “LTELNREQKWQMMLSKSMRR [synthetic peptide, protein origin CaiF]”: 40%. As for “VEALKERFQASLRD [synthetic peptide, protein origin Phenylalanyl-tRNA synthetase]”, the “% hydroxylation (+16 Da)” value is 40%. The same measure, in the same setting: the same measure for “LLRLFFPLSLRV [synthetic peptide, protein origin PhoQ]”: 50%; for “NTHRGMGYSLRGL [synthetic peptide, protein origin CreB]”: 30%. On the same count and under the same terms, the same measure for “KTPLAVLQSTLRS [synthetic peptide, protein origin PhoQ]”: 95%; for “KWQMMLSKSMRR [synthetic peptide, protein origin CaiF]”: 30%. “LAVLQSTLRSLRS [synthetic peptide, protein origin PhoQ]”: the “% hydroxylation (+16 Da)” value was determined as 60%. On the same count and under the same terms, the same measure for “ELNREQKWQMMLSKSMRR [synthetic peptide, protein origin CaiF]”: 40%; for “ATVAKCVEALKERFQASLRD [synthetic peptide, protein origin PheT]”: 40%. Still for that read-out and setting: with “KLLRLFFPLSLRV [synthetic peptide, protein origin PhoQ]” the figure was 60%; with “AQYPQEVITTVRG [synthetic peptide, protein origin PhoP]”, 60%; with “VAKCVEALKERFQASLRD [synthetic peptide, protein origin PheT]”, 50%.
